Test results: paper PMC8625570, “Selectivity Determinants of RHO GTPase Binding to IQGAPs” (International Journal of Molecular Sciences, 2021)

T1: IQGAP1^C794 (C-terminal half of human IQGAP1 with the GRD, RGCT and CT domains) (human, UniProt P46940 863-1657)
T1 sequence (looked up): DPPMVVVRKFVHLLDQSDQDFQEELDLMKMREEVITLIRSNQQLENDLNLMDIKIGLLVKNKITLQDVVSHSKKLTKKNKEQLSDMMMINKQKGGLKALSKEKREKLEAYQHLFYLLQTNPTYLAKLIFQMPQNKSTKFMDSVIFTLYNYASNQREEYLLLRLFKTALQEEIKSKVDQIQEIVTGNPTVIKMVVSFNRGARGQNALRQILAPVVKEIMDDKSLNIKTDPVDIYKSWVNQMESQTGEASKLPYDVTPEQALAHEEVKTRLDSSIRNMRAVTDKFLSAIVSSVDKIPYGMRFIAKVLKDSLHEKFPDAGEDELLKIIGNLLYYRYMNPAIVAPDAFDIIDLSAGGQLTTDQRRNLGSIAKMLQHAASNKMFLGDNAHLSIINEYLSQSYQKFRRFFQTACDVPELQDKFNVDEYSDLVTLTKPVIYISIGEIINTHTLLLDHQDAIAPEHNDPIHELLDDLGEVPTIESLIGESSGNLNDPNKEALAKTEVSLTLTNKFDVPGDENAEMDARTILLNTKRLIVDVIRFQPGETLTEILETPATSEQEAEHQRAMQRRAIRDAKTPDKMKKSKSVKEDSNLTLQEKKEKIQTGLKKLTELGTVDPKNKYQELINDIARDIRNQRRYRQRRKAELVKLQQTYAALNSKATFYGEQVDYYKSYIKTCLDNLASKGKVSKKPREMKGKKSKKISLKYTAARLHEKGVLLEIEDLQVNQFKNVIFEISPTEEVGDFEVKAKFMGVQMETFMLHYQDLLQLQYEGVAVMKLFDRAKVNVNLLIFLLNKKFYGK

T2: IQGAP2^C795 (C-terminal fragment of IQGAP2) (human, UniProt Q13576 780-1575)
T2 construct: IQGAP2, aa 780-1575; also called IQGAP2^C975
T2 sequence (looked up): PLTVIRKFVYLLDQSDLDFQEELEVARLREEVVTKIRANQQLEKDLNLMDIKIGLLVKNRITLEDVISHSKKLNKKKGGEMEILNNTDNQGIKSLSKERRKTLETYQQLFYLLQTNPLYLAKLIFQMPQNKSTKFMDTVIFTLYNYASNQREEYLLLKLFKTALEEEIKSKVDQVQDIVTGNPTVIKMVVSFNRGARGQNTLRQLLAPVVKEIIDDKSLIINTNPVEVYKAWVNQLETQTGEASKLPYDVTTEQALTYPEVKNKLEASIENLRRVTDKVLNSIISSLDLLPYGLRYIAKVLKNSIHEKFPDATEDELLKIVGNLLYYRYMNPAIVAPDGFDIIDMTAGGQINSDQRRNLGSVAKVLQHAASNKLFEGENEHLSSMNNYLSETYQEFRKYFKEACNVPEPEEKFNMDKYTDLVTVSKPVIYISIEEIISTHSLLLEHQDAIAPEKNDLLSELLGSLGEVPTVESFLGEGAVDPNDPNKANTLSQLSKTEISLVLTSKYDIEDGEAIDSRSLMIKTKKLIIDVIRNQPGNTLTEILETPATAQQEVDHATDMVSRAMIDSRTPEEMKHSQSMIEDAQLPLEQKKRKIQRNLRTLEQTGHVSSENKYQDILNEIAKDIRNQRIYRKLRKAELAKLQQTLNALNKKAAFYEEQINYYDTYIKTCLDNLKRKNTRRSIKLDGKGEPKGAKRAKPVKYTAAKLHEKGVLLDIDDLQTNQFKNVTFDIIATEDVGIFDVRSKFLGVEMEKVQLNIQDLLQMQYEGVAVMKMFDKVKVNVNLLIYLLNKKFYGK


Legend:
Conditions in all cases: both partners purified
RAC1 (aa 1-179) = RAC1 (aa 1-179) (human, UniProt P63000 1-179); assay: stopped-flow fluorescence spectrometry; competition: 4 µM IQGAP1^C794 premixed with 40 µM RAC-binding protein (10-fold molar excess), mixed 1:1 with 0.4 µM RAC1•mGppNHp; 25 °C
[1] = molecular target: T1, IQGAP1^C794 (C-terminal half of human …); assay: stopped-flow fluorescence spectrometry; kon from 0.2 µM mGppNHp-bound RHO GTPase with 2-8 µM IQGAP1^C794; koff by displacing with 10 µM unlabeled RAC1-GppNHp from 2 µM IQGAP1^C794 with 0.2 µM GTPase; Kd calculated from the rate constants; 25 °C
[2] = molecular target: T2, IQGAP2^C795 (C-terminal fragment of …); assay: stopped-flow fluorescence spectrometry; association (kobs): 2 µM IQGAP1^C794 or IQGAP2^C795 mixed with 0.2 µM mGppNHp-bound RHO GTPase; 30 mM Tris-HCl pH 7.5, 10 mM K2HPO4/KH2PO4 pH 7.4, 2 mM MgCl2, 3 mM DTT, 25 °C
CDC42^Q61L•GppNHp = CDC42^Q61L•GppNHp (human, UniProt P60953 1-178, Q61L); assay: SEC; analytical SEC of IQGAP1 GRD with CDC42^Q61L•GppNHp or CDC42^WT•GppNHp
CDC42 (aa 1-178) = CDC42 (aa 1-178) (human, UniProt P60953 1-178); assay: as above
CDC42 (aa 1-178), sequence (P60953 1-178): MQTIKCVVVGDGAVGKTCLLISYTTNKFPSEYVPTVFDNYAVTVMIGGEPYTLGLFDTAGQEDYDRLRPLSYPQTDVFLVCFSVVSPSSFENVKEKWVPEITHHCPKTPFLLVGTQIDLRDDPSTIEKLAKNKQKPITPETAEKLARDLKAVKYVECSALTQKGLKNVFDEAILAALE

CDC42^Q61L•GppNHp, sequence (P60953 1-178 Q61L): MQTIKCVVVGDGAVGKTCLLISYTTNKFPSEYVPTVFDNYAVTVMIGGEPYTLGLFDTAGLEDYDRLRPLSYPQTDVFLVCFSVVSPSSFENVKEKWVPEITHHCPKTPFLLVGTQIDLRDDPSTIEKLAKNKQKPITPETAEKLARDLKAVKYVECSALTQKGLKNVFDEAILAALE

Binder | binding result (RAC1 (aa 1-179)) | binding result [1] | also measured
DOCK2 DHR2 (DOCK homology region 2 domain of DOCK2) (domain or fragment, human DOCK2 DHR2 domain, aa 1211-1624; also called DOCK DHR2; source: pOPIN vector, purified; the methods say all proteins except IQGAP2^C795 were isolated as GST fusions with GST cleaved) YKDNNREEMYIRYLYKLRDLHLDCDNYTEAAYTLLLHTWLLKWSDEQCASQVMQTGQQHPQTHRQLKETLYETIIGYFDKGKMWEEAISLCKELAEQYEMEIFDYELLSQNLIQQAKFYESIMKILRPKPDYFAVGYYGQGFPSFLRNKVFIYRGKEYERREDFQMQLMTQFPNAEKMNTTSAPGDDVKNAPGQYIQCFTVQPVLDEHPRFKNKPVPDQIINFYKSNYVQRFHYSRPVRRGTVDPENEFASMWIERTSFVTAYKLPGILRWFEVVHMSQTTISPLENAIETMSTANEKILMMINQYQSDETLPINPLSMLLNGIVDPAVMGGFAKYEKAFFTEEYVRDHPEDQDKLTHLKDLIAWQIPFLGAGIKIHEKRVSDNLRPFHDRMEECFKNLKMKVEKEYGVREMPD | binds | – | –
CDC42 V85D/S88D (natural protein) not shown | – | binds | –
RHOG (aa 1-178) (natural protein) not shown | – | binds | binding result [2]: binds
IQGAP1^GRD (RASGAP-related domain of IQGAP1) (domain or fragment, human, UniProt P46940 962-1345, looked up) SKEKREKLEAYQHLFYLLQTNPTYLAKLIFQMPQNKSTKFMDSVIFTLYNYASNQREEYLLLRLFKTALQEEIKSKVDQIQEIVTGNPTVIKMVVSFNRGARGQNALRQILAPVVKEIMDDKSLNIKTDPVDIYKSWVNQMESQTGEASKLPYDVTPEQALAHEEVKTRLDSSIRNMRAVTDKFLSAIVSSVDKIPYGMRFIAKVLKDSLHEKFPDAGEDELLKIIGNLLYYRYMNPAIVAPDAFDIIDLSAGGQLTTDQRRNLGSIAKMLQHAASNKMFLGDNAHLSIINEYLSQSYQKFRRFFQTACDVPELQDKFNVDEYSDLVTLTKPVIYISIGEIINTHTLLLDHQDAIAPEHNDPIHELLDDLGEVPTIESLIGESS | – | – | stoichiometry N (CDC42^Q61L•GppNHp): 2 CDC42^Q61L per GRD (printed as 2:1; order taken from p-0007); stoichiometry N (CDC42 (aa 1-178)): 1 GRD per CDC42 (printed as 2:2)

Now from value to binder, other results behind:

binding result (RAC1 (aa 1-179)) | binding result [1] | Binder | also measured
– | binds | CDC42 T25K/N26D (natural protein) not shown | –
– | binds | CDC42 Q74D (natural protein) not shown | –
binds | – | p50^GAP (GAP domain) (domain or fragment) HVKLEQLGIPRQVLKYDDFLKSTQKSPATAPKPMPPRPPLPNQQFGVSLQHLQEKNPEQEPIPIVLRETVAYLQAHALTTEGIFRRSANTQVVREVQQKYNMGLPVDFDQYNELHLPAVILKTFLRELPEPLLTFDLYPHVVGFLNIDESQRVPATLQVLQTLPEENYQVLRFLTAFLVQISAHSDQNKMTNTNLAVVFGPNLLWAKDAAITLKAINPINTFTKFLLDHQGELFPSPDPSGL | –
binds | – | PAK1 GBD (GTPase-binding domain of PAK1) (domain or fragment) SILPGDKTNKKKEKERPEISLPSDFEHTIHVGFDAVTGEFTGMPEQWARLLQTSNITKSEQKKNPQAVLDVLEFYNSKKTSNSQK | –
– | binds | RHOA-to-RAC1 variant (RHOA K27T, D28N, E47M, E54N, D76Q) (natural protein) not shown | –
